Laboratory results: patent US20260091068A1, “METHODS FOR TREATING AND PREVENTING DISEASES” (priority 2017, published 2026)

System: Bacteriophages of E. coli
Assay: Inactivation of bacteriophages by nucleases and proteases, titer by Gratia's method (Example 22)
Format: cell-based
Details: E. coli phage treated with 10 mcg/ml enzyme for 30 min
Experimental: As a control, when the original phage is added back, the titer increases.

B1: Proteinase K: Proteinase K (Promega) (protein, UniProt P06873 106-384, looked up)
Proteinase K: AAQTNAPWGLARISSTSPGTSTYYYDESAGQGSCVYVIDTGIEASHPEFEGRAQMVKTYYYSSRDGNGHGTHCAGTVGSRTYGVAKKTQLFGVKVLDDNGSGQYSTIIAGMDFVASDKNNRNCPKGVVASLSLGGGYSSSVNSAAARLQSSGVMVAVAAGNNNADARNYSPASEPSVCTVGASDRYDRRSSFSNYGSVLDIFGPGTSILSTWIGGSTRSISGTSMATPHVAGLAAYLMTLGKTTAASACRYIADTANKGDLSNIPFGTVNLLAYNNYQA
**Q.** For B1, which “Phage titer (by Gratia's method)” value is on record?
**A.** The value was 6 × 10^4.
